Source: the supplement of paper PMC10126150
± gives the standard deviation of the averaged measurements.

Tested on: ATP
Assay: switch fluorescence ratio, 500 uM ATP over buffer (Cy3 cluster intensity, sum of 5 cycles each) (fold (ratio)); higher = stronger signal-on switching upon ATP binding; sequences stand for … in TCGTCGGCAGCGTCAGATGTGTATAAGAGACAGTTTTTTTTTTTTTTTTTTTTTTTTT…TC
Settings: aptamer strand: ATP DNA aptamer (quencher-CACCTGGGGGAGTATTGCGGAGGAAGG + anchor), 100 nM annealed; ATP concentration: 500 uM
How it was run: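 Exposure to 500 uM ATP lasted 15 min at 22 °C before imaging, and a selection-buffer image was taken beforehand, for Cy3-labelled switching-strand clusters on a modified Illumina MiSeq flow-cell annealed to 100 nM quencher-labelled ATP aptamer. Five buffer/ATP cycles were run with NaOH stripping and re-annealing between them. The fluorescence ratio per cluster is summed target-cycle over summed buffer-cycle Cy3 intensity, averaged per switch-domain sequence. Clusters outside 100-1000 RFU were excluded.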

| Sequence | switch fluorescence ratio |
| --- | --- |
| TGATCGAAGG | 0.991 ± 0.034 |
| TGAAACGGAA | 1.15 ± 0.079 |
| TTAGGTTCTC | 0.991 ± 0.015 |
| GTTGTTGAAG | 1.009 ± 0.0011 |
| GGCACTTCCA | 1.03 ± 0.028 |
| CGGTGATTGA | 1.004 ± 0.0023 |
| GAAATAAAAG | 0.9796 ± 0.0064 |
| GTATGTTGGG | 1.08 ± 0.045 |
| TATGCGAGTC | 0.952 ± 0.036 |
| AGTTTTGGGG | 0.981 ± 0.043 |
| TTTGGAGTTT | 0.987 ± 0.053 |
| ACTACCCTCG | 1.18 ± 0.065 |
| TTAGGAGATT | 1.08 ± 0.14 |
| TGGCTTAAAC | 1.18 ± 0.28 |
| TCGTTTTGAC | 1.02 ± 0.023 |
| TGGAAATGCC | 1.07 ± 0.065 |
| AGTCTGCGCG | 1.002 ± 0.007 |
| TCGTGGTGGG | 0.994 ± 0.012 |
| AGATTTAGGG | 0.986 ± 0.017 |
| GCGCTTGGAA | 1.02 ± 0.049 |
| TTGCGCTCGT | 0.993 ± 0.011 |
| CTGGCCTTTG | 0.983 ± 0.036 |
| TTGGGCTATT | 1.01 ± 0.015 |

| Sequence | switch fluorescence ratio |
| --- | --- |
| TGTTTGTGAG | 1 ± 0.045 |
| TCTTATGGAA | 1.04 ± 0.047 |
| ATACGAAGGC | 0.985 ± 0.093 |
| GGGCACTTGT | 1.01 ± 0.04 |
| TGAAAATACC | 1.011 ± 0.01 |
| CAAGTTCAAA | 1.013 ± 0.0055 |
| TTAAAGGTGG | 0.984 ± 0.042 |
| TCACTGGGTG | 1.23 ± 0.035 |
| TAGGAAAGGG | 0.997 ± 0.027 |
| AGTGGGGTG | 1.03 ± 0.026 |
| TCGTTATTGG | 0.9844 ± 0.0023 |
| AAAAAATAGG | 1.01 ± 0.028 |
| TCGAATAACT | 2.2 ± 1.7 |
| AAAGTGGGGT | 1 ± 0.018 |
| AATTCAAAAA | 1.02 ± 0.021 |
| CTGCTAGGGG | 1.04 ± 0.034 |
| AGTGATAAGT | 0.969 ± 0.015 |
| CCACGCCAGA | 1.28 ± 0.052 |
| TTTCTTATTT | 1 ± 0.013 |
| ATATGTGACT | 0.977 ± 0.014 |
| TAAGCTTGGC | 1.02 ± 0.026 |
| GAGGTACAAA | 1.013 ± 0.01 |
| GGGGACCGGG | 1.07 ± 0.094 |

| Sequence | switch fluorescence ratio |
| --- | --- |
| TGCGGACAA | 0.9948 ± 0.0043 |
| ATGTGGGTTG | 1.03 ± 0.022 |
| TTCGTTTTCG | 0.991 ± 0.029 |
| GGCAAATGGG | 1.02 ± 0.012 |
| TAGCGAGTAT | 1 ± 0.011 |
| CGTAGGATTG | 1.02 ± 0.03 |
| TCCAGCCCGT | 1.02 ± 0.027 |
| CAATTATATG | 0.9961 ± 0.0071 |
| ATATGCCGAT | 0.996 ± 0.013 |
| GGCCGCGGCC | 1.0014 ± 0.00091 |
| AATCATATGG | 0.969 ± 0.057 |
| CCTCGGGAAA | 1.06 ± 0.1 |
| AGTGCTGTGC | 0.997 ± 0.012 |
| TTGTTTGGGG | 0.998 ± 0.026 |
| TGGATTTAGT | 0.9825 ± 0.0084 |
| CATATTTCGG | 0.995 ± 0.03 |
| GAGAGGCTGT | 0.9538 ± 0.0062 |
| GGGGTAGAAT | 1.03 ± 0.061 |
| CTCCAGTCAG | 1.51 ± 0.055 |
| TTGTTCCCGT | 0.9839 ± 0.0013 |
| ATGGTGTCTT | 0.961 ± 0.023 |
| AGGGTTGGGC | 1.01 ± 0.021 |
| CGATATTGCC | 0.9909 ± 0.0097 |

| Sequence | switch fluorescence ratio |
| --- | --- |
| CGTAATTTCA | 1.02 ± 0.013 |
| TAAAATACA | 0.983 ± 0.019 |
| GACAAATCTG | 1.04 ± 0.043 |
| GCTTTATAGT | 0.985 ± 0.049 |
| AGTAATTGAC | 1.1 ± 0.013 |
| GTCAGGCTGA | 0.97427 ± 0.00022 |
| GGGGTGGCGT | 1.07 ± 0.1 |
| TCATTGATCG | 0.987 ± 0.011 |
| ATGGAGGCGG | 1.04 ± 0.04 |
| AGTATGGTGC | 0.991 ± 0.029 |
| TTCGGGAACA | 1.02 ± 0.038 |
| AGTCTGCCGG | 1.01 ± 0.028 |
| TTAAAAAGTG | 1.02 ± 0.068 |
| TAAACTAAAA | 0.97499 ± 3.2e-05 |
| TTCGTATACC | 0.988 ± 0.051 |
| TCATTTATCA | 1 ± 0.053 |
| TGATGTTCGA | 1 ± 0.028 |
| ACATTGGCGA | 0.988 ± 0.044 |
| TGTTTGTGCG | 0.9633 ± 0.0057 |
| GGAAAATTAA | 1 ± 0.033 |
| ATCTGATGTC | 0.978 ± 0.018 |
| AACCGATGTG | 1.01 ± 0.037 |
| TCTAATTAGT | 0.993 ± 0.013 |

| Sequence | switch fluorescence ratio |
| --- | --- |
| AGGTAGCTGT | 1.04 ± 0.053 |
| AATTCCGATG | 1.29 ± 0.076 |
| GATAGCTCTG | 1.02 ± 0.021 |
| TTCATTTTG | 1.01 ± 0.068 |
| GGGTATACAG | 1.01 ± 0.053 |
| GGTTGGGTTG | 0.987 ± 0.019 |
| TTTTTCCGGC | 1.063 ± 0.0063 |
| ATGATTATGG | 1.02 ± 0.014 |
| TTTCTCAGTT | 0.977 ± 0.02 |
| GGACAAGCGT | 0.987 ± 0.021 |
| AATAAGAATA | 1 ± 0.037 |
| AGTAGTTTTG | 0.98 ± 0.014 |
| TTGAATGTCA | 0.968 ± 0.019 |
| GAAGGGAGCG | 0.984 ± 0.045 |
| GCCGAAGGGT | 1.02 ± 0.03 |
| GCTGTGGGTA | 0.989 ± 0.01 |
| AGTTGTTTTT | 0.983 ± 0.025 |
| GCAGTATAAT | 0.9932 ± 0.0099 |
| AGTCAACCGG | 1.03 ± 0.034 |
| GGGGCTGCGG | 0.973 ± 0.052 |
| GGGATGCGTG | 0.991 ± 0.043 |
| AGTGCGTTTA | 1 ± 0.014 |
| ATACCGTGAG | 1.05 ± 0.011 |

| Sequence | switch fluorescence ratio |
| --- | --- |
| CGGCTTTTGT | 1 ± 0.029 |
| GACCGGAGTC | 1.03 ± 0.049 |
| GATATGGATG | 0.96 ± 0.032 |
| TGGGGAGAGG | 1.02 ± 0.037 |
| GCGTTAGTTG | 1.01 ± 0.057 |
| GGGAGTATGG | 0.977 ± 0.027 |
| CAAGTCTAGA | 0.995 ± 0.026 |
| TGTGTTCACT | 1.01 ± 0.036 |
| GCTGCCAACC | 1.11 ± 0.031 |
| AGAGTGGTA | 0.9491 ± 0.0052 |
| GCTGATCGTA | 0.9915 ± 0.0057 |
| TAGGGTCGG | 1 ± 0.053 |
| CTCGGTTTTT | 0.989 ± 0.035 |
| TTTATTGTCC | 0.975 ± 0.034 |
| TTGGTTACAG | 0.978 ± 0.031 |
| AAAAATGCGG | 1.01 ± 0.077 |
| GGTTCATTTT | 1.01 ± 0.025 |
| TACTGCCAGC | 1.08 ± 0.054 |
| TTGAAACTCG | 1.063 ± 0.0023 |
| AGCACGCTGG | 1.029 ± 0.0042 |
| TTATTCGGTT | 0.982 ± 0.031 |
| TTAGTTTTGA | 1 ± 0.031 |
| GGGTAGTCAG | 0.995 ± 0.017 |

| Sequence | switch fluorescence ratio |
| --- | --- |
| GGAGAAAATG | 1.0023 ± 0.00074 |
| CGTGAAATCG | 1.02 ± 0.019 |
| AATAGCAACT | 1.06 ± 0.029 |
| GTTTAAACGT | 1.02 ± 0.021 |
| TGAATTTTAA | 0.995 ± 0.042 |
| TATGTACGAT | 1.05 ± 0.059 |
| TTTCGGCGGT | 1.02 ± 0.021 |
| ATCATTCCTC | 1.573 ± 0.011 |
| TGGGCGTAAG | 1.02 ± 0.027 |
| ACTTCGGTTT | 1.01 ± 0.035 |
| TTTATTGTT | 0.99 ± 0.018 |
| AAGTTGAGTA | 0.986 ± 0.025 |
| TGGAAGCGGG | 1.04 ± 0.07 |
| AGAGGGGGTA | 0.997 ± 0.022 |
| ACCTTGTATA | 0.971 ± 0.022 |
| TAAACGTATT | 1.14 ± 0.13 |
| ATATGTGGCG | 0.932 ± 0.011 |
| GCTCCCAAGG | 3.69 ± 0.46 |
| CTATGCGTAC | 3.51 ± 0.89 |
